The text below walks through data of patent publication US20130071410A1 (published 2013).

This experiment has as its target T1, human CGRP receptor (CRLR + RAMP1) (human, UniProt Q16602 23-461; O60894 27-148).
T1 construct: also called hCGRP R; huCGRP R
Nature of the experiment: FACS staining of transfected cells.

T1 sequence (Q16602 23-461 limits assumed, chain 1 of 2): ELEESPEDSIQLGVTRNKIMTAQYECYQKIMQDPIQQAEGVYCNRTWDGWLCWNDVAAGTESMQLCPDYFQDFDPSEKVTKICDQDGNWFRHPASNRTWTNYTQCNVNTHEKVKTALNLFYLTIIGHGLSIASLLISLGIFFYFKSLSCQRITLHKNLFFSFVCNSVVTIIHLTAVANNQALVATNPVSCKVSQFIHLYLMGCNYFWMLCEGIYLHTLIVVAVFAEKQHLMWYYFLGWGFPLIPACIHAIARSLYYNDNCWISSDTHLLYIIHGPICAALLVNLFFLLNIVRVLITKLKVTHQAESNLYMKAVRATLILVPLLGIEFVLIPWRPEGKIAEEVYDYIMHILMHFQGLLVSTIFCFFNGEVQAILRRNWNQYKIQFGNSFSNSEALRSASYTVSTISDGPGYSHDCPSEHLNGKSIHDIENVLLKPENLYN
T1 sequence (O60894 27-148 limits assumed, chain 2 of 2): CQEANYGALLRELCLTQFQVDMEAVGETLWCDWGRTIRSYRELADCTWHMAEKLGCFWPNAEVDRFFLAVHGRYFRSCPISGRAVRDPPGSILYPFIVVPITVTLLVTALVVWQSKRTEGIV

Ac-WVTHRLAGLLSRSGGVVRCNFVPTDVGPFAF-NH2 (also: Alexa 647 label, site not given here, also called Alexa647-CGRP8-37) [Alexa 647-labeled CGRP8-37 peptide analog]: the binding result is “binds”.
